Experimental data as given in the supplement of paper PMC10567573.

B1: ETS2 (parent)
chain: TSGKRYVYRFVCDLQNLLGFTPEE

Variants of: B1
Assay: protein stability index of a GFP-peptide fusion (GPS, HEK-293T) (PSI 1-6); higher = more stable
Settings: c terminus: a fixed tail appended
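Also: lentivirally expressed fusions sorted by FACS into six bins by GFP to DsRed ratio, PSI derived from sequencing read proportions per bin multiplied by bin number.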

Variant	protein stability index
TSGKRYVYRFVCHLQNLLGFTPEE [D13H]	1.79
TSGKRYVYRFVCKLQNLLGFTPEE [D13K]	2.48
TSGKRYVYRFVCILQNLLGFTPEE [D13I]	2.81
TSGKRYVYRFVCELQNLLGFTPEE [D13E]	2.11
TSGKRYVYRFVCDLQNLLQFTPEE [G19Q]	2.65
TSGKRYVYRFVCDLQNLLVFTPEE [G19V]	2.01
TSGKRYVYRFVCDLQNLLCFTPEE [G19C]	1.32
TSGKRYVYRFVCDLQNLLSFTPEE [G19S]	2.13
TSGKRYVYRFVCDLQNLLWFTPEE [G19W]	2.65
TSGKRYVYRFVCDLQNLLHFTPEE [G19H]	1.34
TSGKRYVYRFVCDLQNLLLFTPEE [G19L]	1.96
TSGKRYVYRFVCDLQNLLMFTPEE [G19M]	1.82
TSGKRYVYRFVCDLQNLLAFTPEE [G19A]	3.01
TSGKRYVYRFVCDLQNLLPFTPEE [G19P]	2.07
TSGKRYVYRFVCDLQNLLIFTPEE [G19I]	2.39
TSGKRYVYRFVCDLQNLLFFTPEE [G19F]	1.82
TSGKRYVYRFVCDLQNLLDFTPEE [G19D]	1.98
TSGKRYVYRFVCDLQNLLTFTPEE [G19T]	1.79
TSGKRYVYRFVCDLQNLLYFTPEE [G19Y]	2.52
TSGKRYVYRFVCDLQNLLKFTPEE [G19K]	1.36
TSGKRYVYRFVCDLQNLLEFTPEE [G19E]	1.31
TSGKRYVYRFVCDLQNLLGFHPEE [T21H]	2.75
TSGKRYVYRFVCDLQNLLGFGPEE [T21G]	1.95
TSGKRYVYRFVCDLQNLLGFFPEE [T21F]	2.02

Variant	protein stability index
TSGKRYVYRFVCDLQNLLGFRPEE [T21R]	1.67
TSGKRYVYRFVCDLQNLLGFEPEE [T21E]	2.32
TSGKRYVYRFVCDLQNLLGFWPEE [T21W]	2.15
TSGKRYVYRFVCDLQNLLGFLPEE [T21L]	2.1
TSGKRYVYRFVCDLQNLLGFKPEE [T21K]	2.25
TSGKRYVYRFVCDLQNLLGFQPEE [T21Q]	1.7
TSGKRYVYRFVCDLQNLLGFCPEE [T21C]	1.32
TSGKRYVYRFVCDLQNLLGFAPEE [T21A]	2.11
TSGKRYVYRFVCDLQNLLGFNPEE [T21N]	2.38
TSGKRYVYRFVCDLQNLLGFPPEE [T21P]	2.44
TSGKRYVYRFVCDLQNLLGFSPEE [T21S]	2.13
TSGKRYVYRFVCDLQNLLGFVPEE [T21V]	1.62
TSGKRYVYRFVCDLQNLLGFMPEE [T21M]	2.05
TSGKRYVYRFVCDLQNLLGFYPEE [T21Y]	1.77
TSGKRYVYRFVCDLQNLLGFIPEE [T21I]	1.76
TSGKRYVYRFVCDLQNLLGFDPEE [T21D]	1.6
TSGKRYVYRFVCDLQNLLGNTPEE [F20N]	3.28
TSGKRYVYRFVCDLQNLLGRTPEE [F20R]	1.87
TSGKRYVYRFVCDLQNLLGQTPEE [F20Q]	2.35
TSGKRYVYRFVCDLQNLLGMTPEE [F20M]	1.62
TSGKRYVYRFVCDLQNLLGDTPEE [F20D]	1.48
TSGKRYVYRFVCDLQNLLGHTPEE [F20H]	1.97
TSGKRYVYRFVCDLQNLLGVTPEE [F20V]	1.93
TSGKRYVYRFVCDLQNLLGYTPEE [F20Y]	2.77

Variant	protein stability index
TSGKRYVYRFVCDLQNLLGCTPEE [F20C]	1.93
TSGKRYVYRFVCDLQNLLGPTPEE [F20P]	3.26
TSGKRYVYRFVCDLQNLLGKTPEE [F20K]	1.77
TSGKRYVYRFVCDLQNLLGATPEE [F20A]	2.59
TSGKRYVYRFVCDLQNLLGTTPEE [F20T]	1.88
TSGKRYVYRFVCDLQNLLGITPEE [F20I]	1.61
TSGKRYVYRFVCDLQNLLGLTPEE [F20L]	2.17
TSGKRYVYRFVCDLQNLLGETPEE [F20E]	2
TSGKRYVYRFVCDLQNLLGWTPEE [F20W]	3.05
TSGKRYVYRFVCDPQNLLGFTPEE [L14P]	3.53
TSGKRYVYRFVCDFQNLLGFTPEE [L14F]	2.08
TSGKRYVYRFVCDNQNLLGFTPEE [L14N]	2.23
TSGKRYVYRFVCDMQNLLGFTPEE [L14M]	2.14
TSGKRYVYRFVCDDQNLLGFTPEE [L14D]	3.01
TSGKRYVYRFVCDTQNLLGFTPEE [L14T]	2.69
TSGKRYVYRFVCDQQNLLGFTPEE [L14Q]	2.81
TSGKRYVYRFVCDKQNLLGFTPEE [L14K]	3.2
TSGKRYVYRFVCDCQNLLGFTPEE [L14C]	2.07
TSGKRYVYRFVCDYQNLLGFTPEE [L14Y]	2.56
TSGKRYVYRFVCDIQNLLGFTPEE [L14I]	2.41
TSGKRYVYRFVCDAQNLLGFTPEE [L14A]	3.91
TSGKRYVYRFVCDRQNLLGFTPEE [L14R]	2.35
TSGKRYVYRFVCDWQNLLGFTPEE [L14W]	2.53
TSGKRYVYRFVCDEQNLLGFTPEE [L14E]	3.19

Variant	protein stability index
TSGKRYVYRFVCDGQNLLGFTPEE [L14G]	2.34
TSGKRYVYRFVCDSQNLLGFTPEE [L14S]	2.77
TSGKRYVYRFVCDHQNLLGFTPEE [L14H]	2.34
TSGKRYVYRFVCDVQNLLGFTPEE [L14V]	2.39
TSGKRYVYRFVCDLQNLLGFTKEE [P22K]	1.83
TSGKRYVYRFVCDLQNLLGFTLEE [P22L]	2.85
TSGKRYVYRFVCDLQNLLGFTSEE [P22S]	1.8
TSGKRYVYRFVCDLQNLLGFTEEE [P22E]	1.46
TSGKRYVYRFVCDLQNLLGFTAEE [P22A]	1.65
TSGKRYVYRFVCDLQNLLGFTYEE [P22Y]	3.16
TSGKRYVYRFVCDLQNLLGFTNEE [P22N]	1.39
TSGKRYVYRFVCDLQNLLGFTWEE [P22W]	1.89
TSGKRYVYRFVCDLQNLLGFTIEE [P22I]	2.24
TSGKRYVYRFVCDLQNLLGFTHEE [P22H]	2.07
TSGKRYVYRFVCDLQNLLGFTGEE [P22G]	1.63
TSGKRYVYRFVCDLQNLLGFTMEE [P22M]	2.35
TSGKRYVYRFVCDLQNLLGFTREE [P22R]	3.16
TSGKRYVYRFVCDLQNLLGFTCEE [P22C]	1.4
TSGKRYVYRFVCDLQNLLGFTFEE [P22F]	1.89
TSGKRYVYRFVCDLQNLLGFTVEE [P22V]	1.05
TSGKRYVYRFVCDLQNLLGFTQEE [P22Q]	2.16
TSGKRYVYRFVCDLQNLLGFTTEE [P22T]	2.16
